Patent publication US20100150834A1 (BURNHAM INSTITUTE, published 2010)

T1: EphB4 (receptor of Table 1) (Mus musculus (Mouse), UniProt P54761 16-539)
T1 sequence: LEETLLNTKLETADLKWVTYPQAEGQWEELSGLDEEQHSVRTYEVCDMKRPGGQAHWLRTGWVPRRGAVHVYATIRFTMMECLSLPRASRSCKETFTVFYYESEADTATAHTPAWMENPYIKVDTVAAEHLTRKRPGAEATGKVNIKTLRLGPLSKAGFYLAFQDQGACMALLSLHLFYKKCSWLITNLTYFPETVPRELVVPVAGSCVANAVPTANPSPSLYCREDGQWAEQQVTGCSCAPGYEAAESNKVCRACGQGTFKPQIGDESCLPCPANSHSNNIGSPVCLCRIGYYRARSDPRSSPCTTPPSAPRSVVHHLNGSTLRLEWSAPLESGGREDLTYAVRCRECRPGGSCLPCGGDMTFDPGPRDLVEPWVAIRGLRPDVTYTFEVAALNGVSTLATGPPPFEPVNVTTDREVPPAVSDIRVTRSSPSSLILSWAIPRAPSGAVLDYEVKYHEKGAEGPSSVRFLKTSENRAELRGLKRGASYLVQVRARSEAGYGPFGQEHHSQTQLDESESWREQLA


What follows are binders tested against EphB1 (receptor of Table 1) (assay: EphB receptor specificity panel (% binding)).

Binder	% Binding [%]
GPVSKAWQETET (Panned on EphB4) [GPVSKAWQETET peptide (SEQ ID NO:31)]	13
DALNDWLLFRPW (Panned on EphB4) [DALNDWLLFRPW peptide (SEQ ID NO:20)]	0
WHRYPDPRMLPT (Panned on EphB2) [WHRYPDPRMLPT peptide (SEQ ID NO:7)]	54
DHWRVSPYSLLY (Panned on EphB2) [DHWRVSPYSLLY peptide (SEQ ID NO:13)]	100
NPVIGPIQRAWT (Panned on EphB4) [NPVIGPIQRAWT peptide (SEQ ID NO:27)]	1
WGIPRAAQVMWT (Panned on EphB4) [WGIPRAAQVMWT peptide (SEQ ID NO:33)]	16
SHWPVLPFAHWQ (Panned on EphB2) [SHWPVLPFAHWQ peptide (SEQ ID NO:12)]	98
DHNHNLYNPWRL (Panned on EphB4) [DHNHNLYNPWRL peptide (SEQ ID NO:21)]	9
DHWYYTPWQPIE (Panned on EphB2) [DHWYYTPWQPIE peptide (SEQ ID NO:9)]	100
SHVGPIMRAWAP (Panned on EphB4) [SHVGPIMRAWAP peptide (SEQ ID NO:28)]	22
EWYMKFPPEHYF (Panned on EphB4) [EWYMKFPPEHYF peptide (SEQ ID NO:19)]	22
IHWPVAPYSYLD (Panned on EphB2) [IHWPVAPYSYLD peptide (SEQ ID NO:11)]	97
GPVADAWLVYPR (Panned on EphB4) [GPVADAWLVYPR peptide (SEQ ID NO:32)]	10
THWCHLLNCAAL (Panned on EphB2) [THWCHLLNCAAL peptide (SEQ ID NO:6)]	100
NHWPTQPYAIPI (Panned on EphB2) [NHWPTQPYAIPI peptide (SEQ ID NO:15)]	18

These binders were tested against EphB2 (receptor of Table 1) (assay: EphB receptor specificity panel (% binding)).

Binder	% Binding [%]
GPVSKAWQETET (Panned on EphB4) [GPVSKAWQETET peptide (SEQ ID NO:31)]	13
DALNDWLLFRPW (Panned on EphB4) [DALNDWLLFRPW peptide (SEQ ID NO:20)]	0
WHRYPDPRMLPT (Panned on EphB2) [WHRYPDPRMLPT peptide (SEQ ID NO:7)]	100
DHWRVSPYSLLY (Panned on EphB2) [DHWRVSPYSLLY peptide (SEQ ID NO:13)]	97
NPVIGPIQRAWT (Panned on EphB4) [NPVIGPIQRAWT peptide (SEQ ID NO:27)]	0
WGIPRAAQVMWT (Panned on EphB4) [WGIPRAAQVMWT peptide (SEQ ID NO:33)]	17
SHWPVLPFAHWQ (Panned on EphB2) [SHWPVLPFAHWQ peptide (SEQ ID NO:12)]	100
DHNHNLYNPWRL (Panned on EphB4) [DHNHNLYNPWRL peptide (SEQ ID NO:21)]	8
DHWYYTPWQPIE (Panned on EphB2) [DHWYYTPWQPIE peptide (SEQ ID NO:9)]	81
SHVGPIMRAWAP (Panned on EphB4) [SHVGPIMRAWAP peptide (SEQ ID NO:28)]	6
EWYMKFPPEHYF (Panned on EphB4) [EWYMKFPPEHYF peptide (SEQ ID NO:19)]	23
IHWPVAPYSYLD (Panned on EphB2) [IHWPVAPYSYLD peptide (SEQ ID NO:11)]	100
GPVADAWLVYPR (Panned on EphB4) [GPVADAWLVYPR peptide (SEQ ID NO:32)]	5
THWCHLLNCAAL (Panned on EphB2) [THWCHLLNCAAL peptide (SEQ ID NO:6)]	89
NHWPTQPYAIPI (Panned on EphB2) [NHWPTQPYAIPI peptide (SEQ ID NO:15)]	100

What follows are binders tested against EphB3 (receptor of Table 1) (assay: EphB receptor specificity panel (% binding)).

Binder	% Binding [%]
GPVSKAWQETET (Panned on EphB4) [GPVSKAWQETET peptide (SEQ ID NO:31)]	14
DALNDWLLFRPW (Panned on EphB4) [DALNDWLLFRPW peptide (SEQ ID NO:20)]	10
WHRYPDPRMLPT (Panned on EphB2) [WHRYPDPRMLPT peptide (SEQ ID NO:7)]	31
DHWRVSPYSLLY (Panned on EphB2) [DHWRVSPYSLLY peptide (SEQ ID NO:13)]	1
NPVIGPIQRAWT (Panned on EphB4) [NPVIGPIQRAWT peptide (SEQ ID NO:27)]	4
WGIPRAAQVMWT (Panned on EphB4) [WGIPRAAQVMWT peptide (SEQ ID NO:33)]	20
SHWPVLPFAHWQ (Panned on EphB2) [SHWPVLPFAHWQ peptide (SEQ ID NO:12)]	9
DHNHNLYNPWRL (Panned on EphB4) [DHNHNLYNPWRL peptide (SEQ ID NO:21)]	9
DHWYYTPWQPIE (Panned on EphB2) [DHWYYTPWQPIE peptide (SEQ ID NO:9)]	5
SHVGPIMRAWAP (Panned on EphB4) [SHVGPIMRAWAP peptide (SEQ ID NO:28)]	2
EWYMKFPPEHYF (Panned on EphB4) [EWYMKFPPEHYF peptide (SEQ ID NO:19)]	23
IHWPVAPYSYLD (Panned on EphB2) [IHWPVAPYSYLD peptide (SEQ ID NO:11)]	4
GPVADAWLVYPR (Panned on EphB4) [GPVADAWLVYPR peptide (SEQ ID NO:32)]	4
THWCHLLNCAAL (Panned on EphB2) [THWCHLLNCAAL peptide (SEQ ID NO:6)]	85
NHWPTQPYAIPI (Panned on EphB2) [NHWPTQPYAIPI peptide (SEQ ID NO:15)]	22

Each binder was assayed against T1, EphB4 (receptor of Table 1) (assay: EphB receptor specificity panel (% binding)).

Binder	% Binding [%]
GPVSKAWQETET (Panned on EphB4) [GPVSKAWQETET peptide (SEQ ID NO:31)]	100
DALNDWLLFRPW (Panned on EphB4) [DALNDWLLFRPW peptide (SEQ ID NO:20)]	100
WHRYPDPRMLPT (Panned on EphB2) [WHRYPDPRMLPT peptide (SEQ ID NO:7)]	13
DHWRVSPYSLLY (Panned on EphB2) [DHWRVSPYSLLY peptide (SEQ ID NO:13)]	0
NPVIGPIQRAWT (Panned on EphB4) [NPVIGPIQRAWT peptide (SEQ ID NO:27)]	100
WGIPRAAQVMWT (Panned on EphB4) [WGIPRAAQVMWT peptide (SEQ ID NO:33)]	100
SHWPVLPFAHWQ (Panned on EphB2) [SHWPVLPFAHWQ peptide (SEQ ID NO:12)]	6
DHNHNLYNPWRL (Panned on EphB4) [DHNHNLYNPWRL peptide (SEQ ID NO:21)]	100
DHWYYTPWQPIE (Panned on EphB2) [DHWYYTPWQPIE peptide (SEQ ID NO:9)]	5
SHVGPIMRAWAP (Panned on EphB4) [SHVGPIMRAWAP peptide (SEQ ID NO:28)]	100
EWYMKFPPEHYF (Panned on EphB4) [EWYMKFPPEHYF peptide (SEQ ID NO:19)]	100
IHWPVAPYSYLD (Panned on EphB2) [IHWPVAPYSYLD peptide (SEQ ID NO:11)]	4
GPVADAWLVYPR (Panned on EphB4) [GPVADAWLVYPR peptide (SEQ ID NO:32)]	100
THWCHLLNCAAL (Panned on EphB2) [THWCHLLNCAAL peptide (SEQ ID NO:6)]	20
NHWPTQPYAIPI (Panned on EphB2) [NHWPTQPYAIPI peptide (SEQ ID NO:15)]	22

Each binder was assayed against EphB6 (receptor of Table 1) (assay: EphB receptor specificity panel (% binding)).

Binder	% Binding [%]
GPVSKAWQETET (Panned on EphB4) [GPVSKAWQETET peptide (SEQ ID NO:31)]	16
DALNDWLLFRPW (Panned on EphB4) [DALNDWLLFRPW peptide (SEQ ID NO:20)]	16
WHRYPDPRMLPT (Panned on EphB2) [WHRYPDPRMLPT peptide (SEQ ID NO:7)]	15
DHWRVSPYSLLY (Panned on EphB2) [DHWRVSPYSLLY peptide (SEQ ID NO:13)]	1
NPVIGPIQRAWT (Panned on EphB4) [NPVIGPIQRAWT peptide (SEQ ID NO:27)]	0
WGIPRAAQVMWT (Panned on EphB4) [WGIPRAAQVMWT peptide (SEQ ID NO:33)]	14
SHWPVLPFAHWQ (Panned on EphB2) [SHWPVLPFAHWQ peptide (SEQ ID NO:12)]	10
DHNHNLYNPWRL (Panned on EphB4) [DHNHNLYNPWRL peptide (SEQ ID NO:21)]	7
DHWYYTPWQPIE (Panned on EphB2) [DHWYYTPWQPIE peptide (SEQ ID NO:9)]	2
SHVGPIMRAWAP (Panned on EphB4) [SHVGPIMRAWAP peptide (SEQ ID NO:28)]	6
EWYMKFPPEHYF (Panned on EphB4) [EWYMKFPPEHYF peptide (SEQ ID NO:19)]	30
IHWPVAPYSYLD (Panned on EphB2) [IHWPVAPYSYLD peptide (SEQ ID NO:11)]	7
GPVADAWLVYPR (Panned on EphB4) [GPVADAWLVYPR peptide (SEQ ID NO:32)]	6
THWCHLLNCAAL (Panned on EphB2) [THWCHLLNCAAL peptide (SEQ ID NO:6)]	26
NHWPTQPYAIPI (Panned on EphB2) [NHWPTQPYAIPI peptide (SEQ ID NO:15)]	0

What follows are binders tested against T1, EphB4 (receptor of Table 1) (assay: inhibition of ephrin-B2 AP binding to EphB4 (panning receptor)).

Binder	IC50 [µM]
DALNDWLLFRPW (Panned on EphB4) [DALNDWLLFRPW peptide (SEQ ID NO:20)]	> 100
NPVIGPIQRAWT (Panned on EphB4) [NPVIGPIQRAWT peptide (SEQ ID NO:27)]	> 500
DHNHNLYNPWRL (Panned on EphB4) [DHNHNLYNPWRL peptide (SEQ ID NO:21)]	~200
EWYMKFPPEHYF (Panned on EphB4) [EWYMKFPPEHYF peptide (SEQ ID NO:19)]	> 600
